Experiments:
[1] = biological target: C3a (Homo sapiens (Human)) (UniProt P01024); assay: cell-based or functional assay
[2] = biological target: C5a (Homo sapiens (Human)) (UniProt P01031); assay: cell-based or functional assay
Sequence of C5a (Homo sapiens (Human)) (P01031 678-751 limits assumed): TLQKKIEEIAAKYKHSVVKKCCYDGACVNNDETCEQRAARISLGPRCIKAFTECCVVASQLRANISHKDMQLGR

Sequence of C3a (Homo sapiens (Human)) (P01024 672-748 limits assumed): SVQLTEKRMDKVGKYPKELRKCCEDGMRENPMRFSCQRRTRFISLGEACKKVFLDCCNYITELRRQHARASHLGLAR

% Arg released (Arg LC-MS/MS, supernatant) [1]: 72% | % Arg released (Arg LC-MS/MS, supernatant) [2]: 14%
Substance: TAFI activation peptide-CPN1-HSA (enzyme)

Reference: patent US20250277200A1
